Measurements as given in publication doi:10.64898/2025.12.06.692711, “Archaeal histone HTkC hypercompacts DNA”.

Target: T1, HTkC (Thermococcus kodakarensis, UniProt Q5JDW7)
T1 sequence: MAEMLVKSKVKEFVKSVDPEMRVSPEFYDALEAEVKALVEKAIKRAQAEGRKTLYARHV
Test: X-ray crystallography; 1.95 A; EMSA: 50 mM Tris-HCl pH 7.0, 75 mM KCl, 14.5% glycerol, room temperature 30 min, gel in 0.5x TBE at 4 C; TPM: 50 mM Tris pH 7.0, 75 mM KCl
Details: protein: recombinant; chain copies: 4; blunt

B1: 30 bp-GC50 (dsDNA)
DNA 1: TTAAAGCCCGTTAAAGCCCGTTAAAGCCCG
DNA 2: CGGGCTTTAACGGGCTTTAACGGGCTTTAA
  binding result: binds
